# Experimental data reported in US12611443B2, “Methods and compositions related to therapeutic peptides for cancer therapy” (THE UNIVERSITY OF CHICAGO, priority 2018, dated 2026).
# “Also recorded” adds a separate entry of the source.
# Columns and labels:
# [1] = system: human/murine cancer cells; assay: In vitro cell viability of cancer cells (calcein-AM, CASP3, ANXA5); assay type: cell-based; conditions: for effect of ELANE inhibitor treatment of ELANE or PMN media on cancer cell killing: PMSF 1 mM or A1AT 42 nM
# Description: Cell lines. The ovarian cancer cell lines—CAOV3, OVCAR3, OVCAR4, OVCAR5, A2780, A2780/CP70, HeyA8, TykNu, SKOV3, ID8, and ID8p53-/- were a gift from Dr. Ernst Lengyel, University of Chicago. The breast cancer cell lines—MDA-MB-231, MDA-MB-231.BM1, MCF-7, M6C, E0771, and E0771.LMB were a gift from Dr. Marsha Rosner, University of Chicago. The colon carcinoma cell line RKO, glioblastoma cancer cell line T98G, osteosarcoma cell lines U-2OS and Saos-2, and the hepatocellular carcinoma cell line HepG2 were a gift from Dr. Kay McLeod, University of Chicago. The lung cancer cell line NCI-H552 was a gift from Dr. Stephanie Huang, University of Chicago, and A549 and LLC1 cells were purchased from ATTC. The melanoma cell lines—B16F10, Mel888, Mel1106, and SK-MEL-28 cells were a gift from Dr. Thomas Gajewski, University of Chicago. The pancreatic cancer cell line PANC1 was a gift from Dr. Yamuna Krishnan, University of Chicago. The leukemia cell line K562 was a gift from Dr. Amittha Wickrema, University of Chicago.
# The prostate cancer cell lines—CWR22Rv1, LAPC4, and LNCaP were a gift from Dr. Donald Vander Griend, University of Chicago. The neuroblastoma cell lines—SK-N-BE(2) and NBL-WN cells were a gift from Dr. Lucy Godley, University of Chicago.
# Neutrophil media collections. Freshly isolated human or murine neutrophils were plated in serum-free DMEM for 24 h. Conditioned media was collected, spun at 500×g for 5 min, and media protein levels were determined with a Bradford assay (Biorad).
# PMN media manipulations. For boiling, PMN media was boiled at 95° C. for 5 min and spun at 15,000×g for 10 min to remove precipitated proteins. For dialysis, PMN media was placed into a Slide-a-Lyzer™ cassette (3.5 kDa cutoff, ThermoFisher Scientific) and dialyzed against 2×4L of PBS at 4° C. for 4 h. For PMSF-inactivation, PMN media was treated with PMSF (1 mM, Sigma) or A1AT (42 nM, Athens Research & Technology) and incubated at room temperature for up to 2 h. Residual PMSF was eliminated with a PD-10 desalting column (GE Healthcare Life). Inhibition of ELANE catalytic activity was confirmed using a chromogenic substrate activity assay (see below). For serum-spiking experiments, human, mouse, or fetal bovine serum (1% or 10%) was added to PMN media prior to or after exposing cancer cells. For immune-depletion studies, ELANE or ECP were immunoprecipitated using anti-ELANE (N2C3, GeneTx) or anti-ECP (MB S2535165, MyBioSource) coupled to Pierce™ Protein A/G Magnetic Beads (ThermoFisher Scientific).
# (§1) In vitro cell viability assays. […] Luminescence was measured using a Victor X3 luminometer (PerkinElmer).
# [2] = system: human and murine cancer cells; assay: CD95 overexpression, ELANE-mediated apoptosis (ANXA5); assay type: cell-based; conditions: ELANE 40 nM, ANXA5 at 30 min
# Protocol: FIGS. 2A-2D Overexpressing CD95 proteins accelerates cancer cell killing by ELANE. Polycistronic adenoviral vectors were prepared to express the human and mouse CD95 sequences followed by the Encephalomyocarditis virus (EMCV) internal ribosome entry site and dTomato sequence under the control of the cytomegalovirus (CMV) promoter. Human and murine cancer cells or non-cancer cells were transduced to over-express full-length CD95, N-terminal CD95 (human: aa 1-209; mouse: aa 1-204), or C-terminal CD95 (human: aa 212-335; mouse: aa 204-327). (A): Transduction efficiency quantified by dTomato (Left). CD95 levels in dTomato− and dTomato+ cells quantified by geometric mean (MFI) (Middle). ANXA5 levels in dTomato− and dTomato+ cells 30 min after treatment with ELANE (40 nM) (Right). Representative data for A549 cells are shown. (B-C): Quantification of transduction efficiency (B) and relative CD95 overexpression (C) for cancer cells and non-cancer cells. (D): Quantification of ANXA5 levels following ELANE treatment (40 nM, 30 min) for mouse cancer cell lines (E0771, B16F10). *, p<0.05 Student's t-test.
# as §1
# (§2) CD95 overexpression studies. Polycistronic adenoviral vectors were prepared to express the human and mouse CD95 sequences followed by the Encephalomyocarditis virus (EMCV) internal ribosome entry site and dTomato sequence under the control of the cytomegalovirus (CMV) promoter (VectorBuilder). Human and murine cancer cells or normal or non-cancer cells were transduced to over-express full-length CD95, N-terminal CD95 (human: aa 1-209; mouse: aa 1-204), C-terminal CD95 (human: aa 212-335; mouse: aa 204-327), or C-terminal CD95 that mimicked ELANE cleavage at site 1 (human: aa 221-335), site 2 (human: aa 212-331), or both sites (aa 221-331). Cancer cells or normal or non-cancer cells were transduced with adenoviruses at an MOI of 50-250 depending on cell type, and expression of dTomato and CD95 (human: 558814; mouse, mouse: 565130, BD Biosciences) were confirmed by flow cytometry. A vector encoding GFP (Vector Builders) was used as a control.
# cancer cells = assay: CD95 protein overexpression in cancer cells, viability in absence of ELANE (calcein-AM); assay type: cell-based, human; conditions: transient overexpression
# Protocol: FIGS. 1A-1K. ELANE cleaves CD95 to selectively kill cancer cells. (A): Heatmap summary of ELANE's effects on survival, stress, and apoptosis pathways in cancer cells and healthy cells. (B-C): Cancer cells were treated with ELANE (100 nM) and CD95 cleavage was assessed by western blotting using anti-N-terminal (B) or anti-C-terminal antibodies (C). *, lower molecular weight CD95 fragment. (D): Cancer cells or non-cancer cells were transduced to overexpress CD95 proteins, and effects on ELANE-mediated apoptosis were quantified by ANXAS at 30 min. n=2/group. See FIG. 1I for transduction and CD95 over-expression. (E): Cleavage of recombinant human CD95 N-terminal (aa 1-173) or C-terminal (aa 212-335) proteins by ELANE was assessed by SDS-PAGE and Coomassie blue staining. (F): Bands from (E) were digested with trypsin and analyzed by mass spectrometry to identify putative ELANE cleavage sites (i.e., peptides with non-tryptic ends). Major non-tryptic peptides were quantified by ion chromatograms. (G): Schematic of ELANE cleavage sites in CD95. […] (H): Cleavage of recombinant peptides corresponding to aa 214-231 and aa 317-335 in CD95 by ELANE was monitored by mass spectrometry. (I): Cancer cells or non-cancer cells were treated with fluorescein-labeled ELANE for 10 min and uptake was visualized by immunofluorescence. (J): ELANE catalytic activity in cancer cell lysates following exposure to ELANE for 30 mins in the presence and absence of Dynasore (60 μM endocytosis inhibitor). Effect of Dynasore on cancer cell killing capability of ELANE (measured by calcein-AM). n=6/group. (K): Cancer cells or non-cancer cells were transduced to overexpress various CD95 proteins, and cell viability in the absence of ELANE was determined by calcein-AM. n=10/group. *, p<0.05 Student's t-test.
# as §1, §2
Molecule,effect of overexpression on ELANE-mediated killing [2],cancer cell death/toxicity on expression in the absence of ELANE (cancer cells),further results
O=S(=O)(F)Cc1ccccc1 [PMSF],–,–,effect of ELANE inhibitor treatment of ELANE or PMN media on cancer cell killing [1]: eliminated the ability of PMN media to kill cancer cells in vitro and in vivo; also recorded: protects cancer cells from apoptosis
"A1AT: alpha-1-anti-trypsin, irreversible non-competitive ELANE inhibitor",–,–,effect of ELANE inhibitor treatment of ELANE or PMN media on cancer cell killing [1]: eliminated the ability of PMN media to kill cancer cells in vitro and in vivo; effect of ELANE inhibitor treatment of ELANE or PMN media on cancer cell killing ([1]; listed as alpha-1-antitrypsin): protects cancer cells from apoptosis
"murine ELANE: recombinant mouse ELANE activated with CTSC (protein, UniProt Q3UP87 27-265, looked up) Neutrophil elastase: SEIVGGRPARPHAWPFMASLQRRGGHFCGATLIARNFVMSAAHCVNGLNFRSVQVVLGAHDLRRQERTRQTFSVQRIFENGFDPSQLLNDIVIIQLNGSATINANVQVAQLPAQGQGVGDRTPCLAMGWGRLGTNRPSPSVLQELNVTVVTNMCRRRVNVCTLVPRRQAGICFGDSGGPLVCNNLVQGIDSFIRGGCGSGLYPDAFAPVAEFADWINSIIRSHNDHLLTHPKDREGRTN",–,–,cancer cell killing by murine ELANE [1]: kills cancer cells
"full-length CD95: full length human CD95 (aa 1-335), isoform 1 (protein, listed as Homo sapiens) MLGIWTLLPLVLTSVARLSSKSVNAQVTDINSKGLELRKTVTTVETQNLEGLHHDGQFCHKPCPPGERKARDCTVNGDEPDCVPCQEGKEYTDKAHFSSKCRRCRLCDEGHGLEVEINCTRTQNTKCRCKPNFFCNSTVCEHCDPCTKCEHGIIKECTLTSNTKCKEEGSRSNLGWLCLLLLPIPLIVWVKRKEVQKTCRKHRKENQGSHESPTLNPETVAINLSDVDLSKYITTIAGVMTLSQVKGFVRKNGVNEAKIDEIKNDNVQDTAEQKVQLLRNWHQLHGKKEAYDTLIKDLKKANLCTLAEKIQTIILKDITSDSENSNFRNEIQSLV",accelerated ELANE-mediated killing in human cancer cells,not toxic to cancer cells,"effect of overexpression on ELANE-mediated killing ([2]; listed as human CD95 (hCD95)): did not protect against ELANE-mediated killing, but rather accelerated it"
"mouse CD95 (mCD95): mouse CD95 overexpressed in cancer cells (protein, UniProt P25446 22-327, looked up) Tumor necrosis factor …: QGTNSISESLKLRRRVRETDKNCSEGLYQGGPFCCQPCQPGKKKVEDCKMNGGTPTCAPCTEGKEYMDKNHYADKCRRCTLCDEEHGLEVETNCTLTQNTKCKCKPDFYCDSPGCEHCVRCASCEHGTLEPCTATSNTNCRKQSPRNRLWLLTILVLLIPLVFIYRKYRKRKCWKRRQDDPESRTSSRETIPMNASNLSLSKYIPRIAEDMTIQEAKKFARENNIKEGKIDEIMHDSIQDTAEQKVQLLLCWYQSHGKSDAYQDLIKGLKKAECRRTLDKFQDMVQKDLGKSTPDTGNENEGQCLE","did not protect against ELANE-mediated killing, but rather accelerated it",–,–
"N-terminal domain peptide of CD95: N-terminal domain of human CD95, aa 1-209 (protein, listed as Homo sapiens) MLGIWTLLPLVLTSVARLSSKSVNAQVTDINSKGLELRKTVTTVETQNLEGLHHDGQFCHKPCPPGERKARDCTVNGDEPDCVPCQEGKEYTDKAHFSSKCRRCRLCDEGHGLEVEINCTRTQNTKCRCKPNFFCNSTVCEHCDPCTKCEHGIIKECTLTSNTKCKEEGSRSNLGWLCLLLLPIPLIVWVKRKEVQKTCRKHRKENQGS",had no effect,not toxic to cancer cells,–
"Cl: hCD95 C-terminal peptide aa 221-335, mimics ELANE cleavage at site 1 (protein) AINLSDVDLSKYITTIAGVMTLSQVKGFVRKNGVNEAKIDEIKNDNVQDTAEQKVQLLRNWHQLHGKKEAYDTLIKDLKKANLCTLAEKIQTIILKDITSDSENSNFRNEIQSLV",–,toxic,cancer cell death/toxicity on expression in the absence of ELANE (cancer cells; listed as aa. 221-335 of SEQ ID NO:1): induced cancer cell death in the absence of ELANE
"C2: hCD95 C-terminal peptide aa 212-331, mimics ELANE cleavage at site 2 (protein) SPTLNPETVAINLSDVDLSKYITTIAGVMTLSQVKGFVRKNGVNEAKIDEIKNDNVQDTAEQKVQLLRNWHQLHGKKEAYDTLIKDLKKANLCTLAEKIQTIILKDITSDSENSNFRNEI",–,toxic,cancer cell death/toxicity on expression in the absence of ELANE (cancer cells; listed as aa. 212-331 of SEQ ID NO:1): induced cancer cell death in the absence of ELANE
